Test [1] addresses CXCR4 naturally expressed on Jurkat T cells (human) (UniProt P61073). The test can be described thus: cell-based or functional assay.
In test [2] the target is CD4 naturally expressed on Jurkat T cells (human) (UniProt P01730). The test can be described thus: cell-based or functional assay.

CXCR4 naturally expressed on Jurkat T cells (human), sequence (P61073 whole entry): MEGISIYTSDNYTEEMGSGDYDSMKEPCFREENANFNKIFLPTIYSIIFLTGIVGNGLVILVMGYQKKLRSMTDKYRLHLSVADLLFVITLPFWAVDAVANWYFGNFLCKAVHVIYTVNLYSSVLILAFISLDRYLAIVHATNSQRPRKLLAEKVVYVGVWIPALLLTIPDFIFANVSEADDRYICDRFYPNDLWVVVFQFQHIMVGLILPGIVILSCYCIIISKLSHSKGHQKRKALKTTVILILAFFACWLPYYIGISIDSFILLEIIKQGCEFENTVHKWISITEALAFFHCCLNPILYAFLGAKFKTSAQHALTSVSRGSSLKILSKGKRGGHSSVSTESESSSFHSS

Turning to “gp143/HXB2, a carboxyl-terminus truncated form of the Env (gp160) of HIV-1 strain HXB2, expressed on CHO or 293T cells (from UniProt P04578 31-714)”, the fusion ratio (460 nm / 530 nm emission) of 293T cells expressing gp143/HXB2 with Jurkat cells in test [1] and in test [2] was 1.54 throughout.

Source of the values: patent US20030036108A1.
